Experimental findings from article PMC5159797 are described below.

One assay concerns the target MBP-Kif2b-NT. The experiment in a line: GST pull-down, anti-MBP blot quantified. Particulars: purified MBP-Kif2b deletions; parent: 1.0; read off a plot.
For another assay, the target named is MBP-Kif2b-CT. In words: GST pull-down, anti-MBP blot quantified. Particulars: purified MBP-Kif2b deletions; n = 3; parent: 1.0; read off a plot.

Take “GST-SKAP (from UniProt Q9Y448) S232A; S237A; T294A”: the ratio to parent was 1.1 with MBP-Kif2b-NT and 0.42 with MBP-Kif2b-CT.
The like results for “GST-SKAP (from UniProt Q9Y448) S232E; S237E; T294E” were, in that order, 15 and 0.87.
